{"source": "patent US11419945B2", "about": "“Antigen binding proteins” (Glaxo Group Limited, priority 2011, dated 2022)", "molecules": {"B1": {"name": "CA8 Chimera: chimeric anti-BCMA antibody: murine CA8 VH (SEQ ID NO:7) and VL (SEQ ID NO:9) on human γ1 and kappa constant regions (antibody, V domains shown)", "VH": "EVQLQQSGAVLARPGASVKMSCKGSGYTFTNYWMHWVKQRPGQGLEWIGATYRGHSDTYYNQKFKGKAKLTAVTSTSTAYMELSSLTNEDSAVYYCTRGAIYNGYDVLDNWGQGTLVTVSS", "VL": "DIQLTQTTSSLSASLGDRVTISCSASQDISNYLNWYQQKPDGTVELVIYYTSNLHSGVPSRFSGSGSGTDYSLTIGYLEPEDVATYYCQQYRKLPWTFGGGSKLEIKR", "modifications": "human IgG1 and kappa constant regions; mus musculus"}}, "key": {"Human in house BCMA": {"target": "T1, Human in house BCMA (Homo sapiens, UniProt Q02223)", "T1 construct": "CD33 signal peptide (N); TEV site (internal); Fc (C); made in house", "T1 sequence (Q02223 with tags, fused parts or gaps limits assumed)": "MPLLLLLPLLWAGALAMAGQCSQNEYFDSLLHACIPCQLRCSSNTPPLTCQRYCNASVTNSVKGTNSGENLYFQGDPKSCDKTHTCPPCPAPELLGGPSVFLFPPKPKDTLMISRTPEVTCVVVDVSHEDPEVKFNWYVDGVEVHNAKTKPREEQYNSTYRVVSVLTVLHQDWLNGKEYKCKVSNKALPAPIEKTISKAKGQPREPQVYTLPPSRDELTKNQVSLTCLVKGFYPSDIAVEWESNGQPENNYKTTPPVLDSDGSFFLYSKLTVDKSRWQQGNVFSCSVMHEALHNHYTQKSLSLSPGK", "assay": "ProteOn analysis of CA8 chimeric and humanised constructs, human in house BCMA", "format": "binding", "conditions": "ProteOn, 25° C.; for ka: in M-1s-1 (unit assumed); for kd: in s-1 (unit assumed)", "method_in_brief": "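SPR at 25 °C in HBS-EP: CA8 antibodies captured on Protein A-coated chip, recombinant BCMA injected at 256, 64, 16, 4, 1 nM with buffer double-referencing; NaOH regeneration. Kinetics from 1:1 model fit; run 2 also used commercial human BCMA.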"}, "cyno BCMA HEK293": {"system": "cyno BCMA HEK293", "sequence (as listed by the source)": "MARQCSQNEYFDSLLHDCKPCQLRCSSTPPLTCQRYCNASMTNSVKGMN", "assay": "FMAT binding assay, cyno BCMA expressing HEK293 cells", "conditions": "range of antibody concentrations", "description": "Cryopreserved transfected human, cyno BCMA and mock transfected HEK293 cells were recovered from LN2 storage. Assay wells were prepared with human chimeric CA8 antibody, at a range of different concentrations, mixed with human BCMA HEK293, cyno BCMA HEK293 and mock transfected cells respectively. Anti-human IgG FMAT Blue secondary conjugate was added for detection of human chimeric CA8. The assay plates were left for a minimum of 90 minutes before the result was read on the ABI8200 (FMAT) plate reader."}, "Cyno in house BCMA": {"system": "Cyno in house BCMA", "sequence (as listed by the source)": "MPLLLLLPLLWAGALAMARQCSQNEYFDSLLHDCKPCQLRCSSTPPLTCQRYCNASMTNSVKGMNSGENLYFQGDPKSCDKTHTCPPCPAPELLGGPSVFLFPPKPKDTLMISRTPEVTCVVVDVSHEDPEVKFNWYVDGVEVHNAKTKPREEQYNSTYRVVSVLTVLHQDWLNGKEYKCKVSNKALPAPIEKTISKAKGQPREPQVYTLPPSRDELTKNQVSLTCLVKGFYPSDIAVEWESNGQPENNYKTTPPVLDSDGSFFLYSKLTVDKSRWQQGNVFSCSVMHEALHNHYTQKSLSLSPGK", "assay": "BIAcore analysis J7 to J9 series, cyno in house BCMA", "format": "binding", "conditions": "37° C."}, "Human commercial BCMA [1]": {"target": "T2, Human commercial BCMA (Homo sapiens, UniProt Q02223)", "T2 construct": "purchased US Biological B0410", "T2 sequence (Q02223 1-184)": "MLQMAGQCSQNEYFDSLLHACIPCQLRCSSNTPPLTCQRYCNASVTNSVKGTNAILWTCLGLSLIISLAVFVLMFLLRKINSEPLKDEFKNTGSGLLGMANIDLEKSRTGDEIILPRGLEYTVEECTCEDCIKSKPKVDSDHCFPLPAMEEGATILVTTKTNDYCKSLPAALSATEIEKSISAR", "assay": "BIAcore analysis of J6M0 and J9M0, human commercial BCMA", "format": "binding", "description": "Protein A was immobilised on a CMS chip (GE Healthcare, Cat No: BR-1005-30) by primary amine coupling and this surface was then used to capture the antibody molecules. Recombinant human BCMA (US Biological, B0410) was used as analyte at 256 nM, 64 nM, 16 nM, 4 nM and 1 nM. Regeneration of the capture surface was carried out using 50 mM NaOH. All binding curves were double referenced with a buffer injection (i.e. 0 nM) the data was fitted to the using the 1:1 model inherent to T100 evaluation software. The run was carried out at 25° C. and 37° C. for experiment 1 and only 37° C. for experiment 2 using HBS-EP as the running buffer."}, "TACI-Fc": {"system": "TACI-Fc", "assay": "Biacore cross reactivity experiment, TACI-Fc", "format": "binding", "conditions": "antibody captured on protein A", "description": "CA8 chimera antibody was injected and captured on protein A. (A protein A derivitised sensorchip was used). Residual protein A binding was blocked with an injection of a high concentration of human IgG solution. BCMA-Fc, TACI-Fc or BAFF-R-Fc solutions were then tested for binding to the antibody. The 3 proteins were injected in sequence and binding events were measured. The surface was regenerated between injection of each protein.\nSensorgrams were analysed in the Biaevaluation program. Double reference subtraction was done to remove instrument noise and any non-specific binding from the sensorgram curves."}, "Human commercial BCMA [2]": {"target": "T2, Human commercial BCMA", "assay": "ProteOn analysis of CA8 chimeric and humanised constructs, commercial human BCMA", "format": "binding", "conditions": "Run 2, commercial human BCMA, 25° C.", "description": "The initial screen of CA8 chimeric and humanised variants was carried out on the ProteOn XPR36 (Biorad). The method was as follows; Protein A was immobilised on a GLC chip (Biorad, Cat No: 176-5011) by primary amine coupling, CA8 variants were then captured on this surface and recombinant human BCMA (in house or commercial US Biological, B0410) materials (run 2 only)) passed over at 256, 64, 16, 4, 1 nM with a 0 nM injection (i.e. buffer alone) used to double reference the binding curves, the buffer used is the HBS-EP buffer. 50 mM NaOH was used to regenerate the capture surface. The data was fitted to the 1:1 model using the analysis software inherent to the ProteOn XPR36. Run 1 corresponds to the first screen of humanised CA8 variants (JO to J5 series) and run 2 to the second screen of humanised CA8 variants (J5 to J9 series). Both runs were carried out at 25° C."}}}
{"molecule": "B1", "values": [{"measurement": "ka", "setting": "Human in house BCMA; Run 1, Human in house BCMA", "result": "2.41E+05"}, {"measurement": "kd", "setting": "Human in house BCMA; Run 1, Human in house BCMA", "result": "1.25E−04"}, {"measurement": "ka", "setting": "Human in house BCMA; Run 2, Human in house BCMA", "result": "2.51E+05"}, {"measurement": "kd", "setting": "Human in house BCMA; Run 2, Human in house BCMA", "result": "1.03E−04"}, {"measurement": "binding to cyno BCMA expressed on HEK293 cells", "setting": "cyno BCMA HEK293", "result": "binds well"}, {"measurement": "ka", "setting": "Cyno in house BCMA; in M-1s-1 (unit assumed)", "result": "1.15E+06"}, {"measurement": "kd", "setting": "Cyno in house BCMA; in s-1 (unit assumed)", "result": "3.49E−04"}, {"measurement": "ka", "setting": "Human commercial BCMA [1]; 25° C., Experiment 1, in M-1s-1 (unit assumed)", "result": "1.88E+06"}, {"measurement": "kd", "setting": "Human commercial BCMA [1]; 25° C., Experiment 1, in s-1 (unit assumed)", "result": "2.63E−04"}, {"measurement": "ka", "setting": "Human commercial BCMA [1]; 37° C., Experiment 1, in M-1s-1 (unit assumed)", "result": "1.72E+07"}, {"measurement": "kd", "setting": "Human commercial BCMA [1]; 37° C., Experiment 1, in s-1 (unit assumed)", "result": "8.72E−04"}, {"measurement": "ka", "setting": "Human commercial BCMA [1]; 37° C., Experiment 2, in M-1s-1 (unit assumed)", "result": "1.88E+07"}, {"measurement": "kd", "setting": "Human commercial BCMA [1]; 37° C., Experiment 2, in s-1 (unit assumed)", "result": "1.04E−03"}, {"measurement": "binding to TACI-Fc", "setting": "TACI-Fc; listed as CA8", "result": "not to TACI"}, {"measurement": "binding to TACI-Fc", "setting": "TACI-Fc; listed as CA8 chimera antibody", "result": "does not bind"}, {"measurement": "ka", "setting": "Human commercial BCMA [2]; in M-1s-1 (unit assumed)", "result": "7.05E+05"}, {"measurement": "kd", "setting": "Human commercial BCMA [2]; in s-1 (unit assumed)", "result": "9.79E−05"}]}
